These results are taken from ChEMBL document CHEMBL4346716, “Synthesis of novel andrographolide beckmann rearrangement derivatives and evaluation of their HK2-related anti-inflammatory activities” (Eur J Med Chem, 2019).

Where only a bound is given, the exact number is not on record here.

Data set [1] relates to RAW264.7. Briefly: Antiinflammatory activity in mouse RAW264.7 cells assessed as inhibition of LPS-induced NO production preincubated for 3 hrs followed by LPS addition measured after 24 hrs by Griess assay. In kind it is functional, cell-based. (In general: Griess reagent forms a coloured azo dye with nitrite.)
For data set [2], the target named is T1, Hexokinase-2 (Homo sapiens, UniProt P52789).
T1 sequence (P52789 whole entry): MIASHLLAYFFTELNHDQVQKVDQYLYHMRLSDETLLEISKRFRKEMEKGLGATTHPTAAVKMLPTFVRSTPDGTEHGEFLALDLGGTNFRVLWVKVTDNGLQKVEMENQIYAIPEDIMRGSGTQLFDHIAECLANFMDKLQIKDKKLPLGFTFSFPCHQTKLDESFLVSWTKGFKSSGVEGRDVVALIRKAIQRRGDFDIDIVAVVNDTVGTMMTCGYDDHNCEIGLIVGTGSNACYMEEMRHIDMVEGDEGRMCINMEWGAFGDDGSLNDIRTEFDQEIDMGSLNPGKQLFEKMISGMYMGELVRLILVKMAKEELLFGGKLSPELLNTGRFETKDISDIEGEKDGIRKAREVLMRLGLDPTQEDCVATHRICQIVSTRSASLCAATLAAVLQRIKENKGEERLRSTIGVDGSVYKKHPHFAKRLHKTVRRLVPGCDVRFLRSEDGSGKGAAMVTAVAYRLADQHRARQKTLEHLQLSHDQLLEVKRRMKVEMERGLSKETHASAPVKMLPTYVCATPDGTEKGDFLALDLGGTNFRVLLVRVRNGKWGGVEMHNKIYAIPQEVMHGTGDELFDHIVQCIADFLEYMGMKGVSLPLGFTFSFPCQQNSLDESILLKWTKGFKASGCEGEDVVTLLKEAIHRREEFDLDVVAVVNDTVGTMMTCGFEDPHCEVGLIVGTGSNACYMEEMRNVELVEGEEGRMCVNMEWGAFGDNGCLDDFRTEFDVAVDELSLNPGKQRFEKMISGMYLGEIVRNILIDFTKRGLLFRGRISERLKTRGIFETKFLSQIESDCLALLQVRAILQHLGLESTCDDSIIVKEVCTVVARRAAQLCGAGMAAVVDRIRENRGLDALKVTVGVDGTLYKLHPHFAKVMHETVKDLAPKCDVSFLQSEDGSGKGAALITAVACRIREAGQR
Description: Inhibition of recombinant human HK2 expressed in Escherichia coli BL21(DE3) using glucose as substrate preincubated for 10 mins followed by substrate addition in presence of ATP by G6PDH/NADP coupled assay.

Compound in data set [3]: C=C1CC[C@H]2[C@@](C)(CCC(=O)N[C@@]2(C)COC(=O)CCCC[C@@H]2CCSS2)[C@@H]1/C=C/C1=CCOC1=O
Briefly: Non competitive inhibition of recombinant human HK2 expressed in Escherichia coli BL21(DE3) assessed as Vmax using 6.25 uM ATP as substrate by Lineweaver-Burk double reciprocal plot analysis (reference value: 0.019 OD/min).

Compound in data set [4]: C=C1CC[C@H]2[C@@](C)(CCC(=O)N[C@@]2(C)COC(=O)CCCC[C@@H]2CCSS2)[C@@H]1/C=C/C1=CCOC1=O
Briefly: Non competitive inhibition of recombinant human HK2 expressed in Escherichia coli BL21(DE3) assessed as Km using 3.125 uM glucose as substrate by Lineweaver-Burk double reciprocal plot analysis (reference value: 0.64 mM).

Compound in data set [5]: C=C1CC[C@H]2[C@@](C)(CCC(=O)N[C@@]2(C)COC(=O)CCCC[C@@H]2CCSS2)[C@@H]1/C=C/C1=CCOC1=O
Description: Non competitive inhibition of recombinant human HK2 expressed in Escherichia coli BL21(DE3) assessed as Vmax using 6.25 uM glucose as substrate by Lineweaver-Burk double reciprocal plot analysis (reference value: 0.012 OD/min).

Compound in data set [6]: C=C1CC[C@H]2[C@@](C)(CCC(=O)N[C@@]2(C)COC(=O)CCCC[C@@H]2CCSS2)[C@@H]1/C=C/C1=CCOC1=O
Briefly: Non competitive inhibition of recombinant human HK2 expressed in Escherichia coli BL21(DE3) assessed as Vmax using 3.125 uM glucose as substrate by Lineweaver-Burk double reciprocal plot analysis (reference value: 0.012 OD/min).

Compound in data set [7]: C=C1CC[C@H]2[C@@](C)(CCC(=O)N[C@@]2(C)COC(=O)CCCC[C@@H]2CCSS2)[C@@H]1/C=C/C1=CCOC1=O
Description: Non competitive inhibition of recombinant human HK2 expressed in Escherichia coli BL21(DE3) assessed as Km using 3.125 uM ATP as substrate by Lineweaver-Burk double reciprocal plot analysis (reference value: 1.62 mM).

Compound in data set [8]: C=C1CC[C@H]2[C@@](C)(CCC(=O)N[C@@]2(C)COC(=O)CCCC[C@@H]2CCSS2)[C@@H]1/C=C/C1=CCOC1=O
Briefly: Non competitive inhibition of recombinant human HK2 expressed in Escherichia coli BL21(DE3) assessed as Km using 6.25 uM glucose as substrate by Lineweaver-Burk double reciprocal plot analysis (reference value: 0.64 mM).

Compound in data set [9]: C=C1CC[C@H]2[C@@](C)(CCC(=O)N[C@@]2(C)COC(=O)CCCC[C@@H]2CCSS2)[C@@H]1/C=C/C1=CCOC1=O
Description: Non competitive inhibition of recombinant human HK2 expressed in Escherichia coli BL21(DE3) assessed as Km using 12.5 uM ATP as substrate by Lineweaver-Burk double reciprocal plot analysis (reference value: 1.62 mM).

Compound in data set [10]: C=C1CC[C@H]2[C@@](C)(CCC(=O)N[C@@]2(C)COC(=O)CCCC[C@@H]2CCSS2)[C@@H]1/C=C/C1=CCOC1=O
Briefly: Non competitive inhibition of recombinant human HK2 expressed in Escherichia coli BL21(DE3) assessed as Vmax using 12.5 uM ATP as substrate by Lineweaver-Burk double reciprocal plot analysis (reference value: 0.019 OD/min).

Compound in data set [11]: C=C1CC[C@H]2[C@@](C)(CCC(=O)N[C@@]2(C)COC(=O)CCCC[C@@H]2CCSS2)[C@@H]1/C=C/C1=CCOC1=O
Briefly: Non competitive inhibition of recombinant human HK2 expressed in Escherichia coli BL21(DE3) assessed as Km using 6.25 uM ATP as substrate by Lineweaver-Burk double reciprocal plot analysis (reference value: 1.62 mM).

Compound in data set [12]: C=C1CC[C@H]2[C@@](C)(CCC(=O)N[C@@]2(C)COC(=O)CCCC[C@@H]2CCSS2)[C@@H]1/C=C/C1=CCOC1=O
Description: Non competitive inhibition of recombinant human HK2 expressed in Escherichia coli BL21(DE3) assessed as Vmax using 12.5 uM glucose as substrate by Lineweaver-Burk double reciprocal plot analysis (reference value: 0.012 OD/min).

Compound in data set [13]: C=C1CC[C@H]2[C@@](C)(CCC(=O)N[C@@]2(C)COC(=O)CCCC[C@@H]2CCSS2)[C@@H]1/C=C/C1=CCOC1=O
Description: Non competitive inhibition of recombinant human HK2 expressed in Escherichia coli BL21(DE3) assessed as Km using 12.5 uM glucose as substrate by Lineweaver-Burk double reciprocal plot analysis (reference value: 0.64 mM).

Compound in data set [14]: C=C1CC[C@H]2[C@@](C)(CCC(=O)N[C@@]2(C)COC(=O)CCCC[C@@H]2CCSS2)[C@@H]1/C=C/C1=CCOC1=O
Description: Non competitive inhibition of recombinant human HK2 expressed in Escherichia coli BL21(DE3) assessed as Vmax using 3.125 uM ATP as substrate by Lineweaver-Burk double reciprocal plot analysis (reference value: 0.019 OD/min).

As a reminder, the IC50 is the concentration at which inhibition is half-maximal. Regarding `C=C1CC[C@H]2[C@@](C)(CCC(=O)N[C@@]2(C)COC(=O)[C@H](N)Cc2ccccc2)[C@@H]1/C=C/C1=CCOC1=O`, the 50% inhibitory concentration (IC50) in data set [1] is more than 50 µM; in [2] it was 4.8 µM.

B1: Hexokinase-2 (Homo sapiens), P52789 (protein)
chain: MIASHLLAYFFTELNHDQVQKVDQYLYHMRLSDETLLEISKRFRKEMEKGLGATTHPTAAVKMLPTFVRSTPDGTEHGEFLALDLGGTNFRVLWVKVTDNGLQKVEMENQIYAIPEDIMRGSGTQLFDHIAECLANFMDKLQIKDKKLPLGFTFSFPCHQTKLDESFLVSWTKGFKSSGVEGRDVVALIRKAIQRRGDFDIDIVAVVNDTVGTMMTCGYDDHNCEIGLIVGTGSNACYMEEMRHIDMVEGDEGRMCINMEWGAFGDDGSLNDIRTEFDQEIDMGSLNPGKQLFEKMISGMYMGELVRLILVKMAKEELLFGGKLSPELLNTGRFETKDISDIEGEKDGIRKAREVLMRLGLDPTQEDCVATHRICQIVSTRSASLCAATLAAVLQRIKENKGEERLRSTIGVDGSVYKKHPHFAKRLHKTVRRLVPGCDVRFLRSEDGSGKGAAMVTAVAYRLADQHRARQKTLEHLQLSHDQLLEVKRRMKVEMERGLSKETHASAPVKMLPTYVCATPDGTEKGDFLALDLGGTNFRVLLVRVRNGKWGGVEMHNKIYAIPQEVMHGTGDELFDHIVQCIADFLEYMGMKGVSLPLGFTFSFPCQQNSLDESILLKWTKGFKASGCEGEDVVTLLKEAIHRREEFDLDVVAVVNDTVGTMMTCGFEDPHCEVGLIVGTGSNACYMEEMRNVELVEGEEGRMCVNMEWGAFGDNGCLDDFRTEFDVAVDELSLNPGKQRFEKMISGMYLGEIVRNILIDFTKRGLLFRGRISERLKTRGIFETKFLSQIESDCLALLQVRAILQHLGLESTCDDSIIVKEVCTVVARRAAQLCGAGMAAVVDRIRENRGLDALKVTVGVDGTLYKLHPHFAKVMHETVKDLAPKCDVSFLQSEDGSGKGAALITAVACRIREAGQR
For orientation: Km means the substrate concentration at which the rate is half of its maximum. For the molecule B1, the Vmax (optical density/minute) in data set [3] is 0.007; in data set [5], 0.005; in data set [6] it was 0.007; in data set [10], 0.005; in data set [12] it was 0.004; in data set [14] it was 0.012. Further, the Km came out at 685 µM in data set [4]; 1280 µM in data set [7]; 695 µM in data set [8]; 1210 µM in [9]; 1280 µM in [11]; 657 µM in [13].
